According to patent publication US12655197 (dated 2026):

Target: ProAgio
Assay: SPR

Kd: 0.12 nM
B1: αVβ3 (receptor)
chain 1: FNLDVDSPAEYSGPEGSYFGFAVDFFVPSASSRMFLLVGAPKANTTQPGIVEGGQVLKCDWSSTRRCQPIEFDATGNRDYAKDDPLEFKSHQWFGASVRSKQDKILACAPLYHWRTEMKQEREPVGTCFLQDGTKTVEYAPCRSQDIDADGQGFCQGGFSIDFTKADRVLLGGPGSFYWQGQLISDQVAEIVSKYDPNVYSIKYNNQLATRTAQAIFDDSYLGYSVAVGDFNGDGIDDFVSGVPRAARTLGMVYIYDGKNMSSLYNFTGEQMAAYFGFSVAATDINGDDYADVFIGAPLFMDRGSDGKLQEVGQVSVSLQRASGDFQTTKLNGFEVFARFGSAIAPLGDLDQDGFNDIAIAAPYGGEDKKGIVYIFNGRSTGLNAVPSQILEGQWAARSMPPSFGYSMKGATDIDKNGYPDLIVGAFGVDRAILYRARPVITVNAGLEVYPSILNQDNKTCSLPGTALKVSCFNVRFCLKADGKGVLPRKLNFQVELLLDKLKQKGAIRRALFLYSRSPSHSKNMTISRGGLMQCEELIAYLRDESEFRDKLTPITIFMEYRLDYRTAADTTGLQPILNQFTPANISRQAHILLDCGEDNVCKPKLEVSVDSDQKKIYIGDDNPLTLIVKAQNQGEGAYEAELIVSIPLQADFIGVVRNNEALARLSCAFKTENQTRQVVCDLGNPMKAGTQLLAGLRFSVHQQSEMDTSVKFDLQIQSSNLFDKVSPVVSHKVDLAVLAAVEIRGVSSPDHVFLPIPNWEHKENPETEEDVGPVVQHIYELRNNGPSSFSKAMLHLQWPYKYNNNTLLYILHYDIDGPMNCTSDMEINPLRIKISSLQTTEKNDTVAGQGERDHLITKRDLALSEGDIHTLGCGVAQCLKIVCQVGRLDRGKSAILYVKSLLWTETFMNKENQNHSYSLKSSASFNVIEFPYKNLPIEDITNSTLVTTNVTWGIQPAPMPV
chain 2: GPNICTTRGVSSCQQCLAVSPMCAWCSDEALPLGSPRCDLKENLLKDNCAPESIEFPVSEARVLEDRPLSDKGSGDSSQVTQVSPQRIALRLRPDDSKNFSIQVRQVEDYPVDIYYLMDLSYSMKDDLWSIQNLGTKLATQMRKLTSNLRIGFGAFVDKPVSPYMYISPPEALENPCYDMKTTCLPMFGYKHVLTLTDQVTRFNEEVKKQSVSRNRDAPEGGFDAIMQATVCDEKIGWRNDASHLLVFTTDAKTHIALDGRLAGIVQPNDGQCHVGSDNHYSASTTMDYPSLGLMTEKLSQKNINLIFAVTENVVNLYQNYSELIPGTTVGVLSMDSSNVLQLIVDAYGKIRSKVELEVRDLPEELSLSFNATCLNNEVIPGLKSCMGLKIGDTVSFSIEAKVRGCPQEKEKSFTIKPVGFKDSLIVQVTFDCDCACQAQAEPNSHRCNNGNGTFECGVCRCGPGWLGSQCECSEEDYRPSQQDECSPREGQPVCSQRGECLCGQCVCHSSDFGKITGKYCECDDFSCVRYKGEMCSGHGQCSCGDCLCDSDWTGYYCNCTTRTDTCMSSNGLLCSGRGKCECGSCVCIQPGSYGDTCEKCPTCPDACTFKKECVECKKFDRGALHDENTCNRYCRDEIESVKELKDTGKDAVNCTYKNEDDCVVRFQYYEDSSGKSILYVVEEPECPKGPD
